Reference: paper PMC6825195

How the values were obtained:
[1] = biological target: cytochrome c oxidase, regulatory competent, from bovine liver (bovine)
[2] = biological target: apoptotic protease-activating factor 1 (mouse (endogenous in Cytc knockout embryonic fibroblasts)) (UniProt O88879)
Chain of UniProt O88879 (O88879 whole entry): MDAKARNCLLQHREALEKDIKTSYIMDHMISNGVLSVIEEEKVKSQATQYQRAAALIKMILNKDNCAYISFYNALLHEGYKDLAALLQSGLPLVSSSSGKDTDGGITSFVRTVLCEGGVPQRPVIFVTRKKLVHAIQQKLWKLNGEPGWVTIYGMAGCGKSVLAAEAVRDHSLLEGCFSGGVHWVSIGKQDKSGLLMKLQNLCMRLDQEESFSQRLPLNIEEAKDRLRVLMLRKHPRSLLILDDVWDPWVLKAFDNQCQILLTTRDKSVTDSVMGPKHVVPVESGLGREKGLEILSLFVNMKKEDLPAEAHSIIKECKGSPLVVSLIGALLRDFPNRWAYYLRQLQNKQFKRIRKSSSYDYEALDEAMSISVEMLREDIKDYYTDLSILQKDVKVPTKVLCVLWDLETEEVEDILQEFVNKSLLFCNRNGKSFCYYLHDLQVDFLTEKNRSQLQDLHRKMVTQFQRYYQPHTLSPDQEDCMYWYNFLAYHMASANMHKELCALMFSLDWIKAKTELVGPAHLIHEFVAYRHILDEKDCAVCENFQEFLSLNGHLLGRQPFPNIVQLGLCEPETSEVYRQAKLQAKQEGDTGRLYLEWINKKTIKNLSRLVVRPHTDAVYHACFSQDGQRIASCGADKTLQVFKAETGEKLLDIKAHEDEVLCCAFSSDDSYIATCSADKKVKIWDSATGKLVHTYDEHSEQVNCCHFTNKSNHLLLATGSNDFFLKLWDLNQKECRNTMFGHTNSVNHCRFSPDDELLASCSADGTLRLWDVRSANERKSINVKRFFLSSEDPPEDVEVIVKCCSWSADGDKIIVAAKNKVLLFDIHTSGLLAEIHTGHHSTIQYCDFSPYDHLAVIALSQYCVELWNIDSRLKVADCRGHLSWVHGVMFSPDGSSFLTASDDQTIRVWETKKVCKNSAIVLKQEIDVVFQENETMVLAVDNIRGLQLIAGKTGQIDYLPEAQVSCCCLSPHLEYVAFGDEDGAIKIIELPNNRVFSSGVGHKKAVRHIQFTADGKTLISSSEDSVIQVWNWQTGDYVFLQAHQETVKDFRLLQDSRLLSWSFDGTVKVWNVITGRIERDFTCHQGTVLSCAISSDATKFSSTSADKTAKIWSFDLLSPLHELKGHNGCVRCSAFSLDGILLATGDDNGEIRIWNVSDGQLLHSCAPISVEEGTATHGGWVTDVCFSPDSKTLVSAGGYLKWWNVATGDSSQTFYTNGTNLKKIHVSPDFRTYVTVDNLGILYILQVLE

apparent Km of Cytc in the reaction with cow liver COX (150 nM; 0-20 µM Cytc; oxygen consumption, polarography, 25 °C) [1] [µM] | cell-free caspase-3 activity (DEVD-R110 cleavage) in cytosolic extract of Cytc knockout fibroblasts with 20 µg/mL Cytc, reduction compared to WT (% reduction compared to WT) [2] | oxygen consumption rate (turnover) of purified cow liver COX with 0-20 µM Cytc, reduction compared to WT Cytc (% reduction compared to WT) [1] | Substance
4.5 | 50 | – | T58A cytochrome c (from UniProt P62897 1-105) (natural protein)
2.5 | 60 | 25 | T58I cytochrome c (from UniProt P62897 1-105) (natural protein)
3 | 70 | 45 | phosphomimetic T58E cytochrome c (from UniProt P62897 1-105) (natural protein)
3 | – | – | wild-type cytochrome c (rodent somatic) (from UniProt P62897 1-105) (natural protein)
